According to a protein production outcome set (Wang et al. 2014):

Test: label from the status in PepcDB records

MGKLLFVDIGGTLLDYSNEVPRSAVDAIRKARAKGHRVYLSSGRSSAEVTSQLWDIGVDGLIGANGGYVESAQESVFHRRLSGEETRHIVEWLYNRGLEFYLESNNGLYASRGFREASKPVLSRLSEKTDVTVDSMYPDMFWGASLDRDDVNKISYIFNSQEDLDAAREAFPNLEHTTWGGQTGALFGTIGVSVNKKIGVDRLLKYLNADRANTIAFGDSDEDLSLFEASAYGVAMGEATESLKAAADLVTDAVGQDGLRNAFLKLELIDA
protein production: failed

MGKQESEKTVTGSDGSGRYERKALIDKLYETQELSREEWIRLIEGRTPELSEYLFEKARAVREREYGKAVYIRGLIECSNYCRNNCYYCGIRRGNQNAQRYRLTADEILSCCENGYSLGFRTFVLQGGEDPAMTDGWVADVIRRIKKEFPDCAVTLSLGEKSEAAYQCLFDAGADRYLLRHETADADHYGKLHPDGLSLAHRMECLRTLKRIGFQTGCGFMVGSPGQTPECLAKDMAFIRELNPQMVGIGPFIPQHDTPFRDERAGAFEETLWLLGLIRLMLPRVLLPATTALGTIHPKGRELGMLAGANVVMPNLSPLGVRKKYLLYDNKICTGDEAAESLNSLKESMKAIGYEVAVGRGDYRL
protein production: failed

MGKRLYAVAYDIPDDTRRVKLANLLKSYGERVQLSVFECYLDERLLEDLRRRARRLLDLGQDALRIYPVAGQVEVLGVGPLPELREVQVL
protein production: not failed

MGKRMLSMFHPFEIALCGLSGSGKTTLLEKLIRRFSTDGFEVAAFKHGCHRFDIDREGKDSDRFRRAGAVPVLIVDREKEALISSGTGRLDIAGLTLNADLLFIEGFKELPVPKVLLIDERREILPSLESGAIPEVLALAHDGDAEDMERFGLPLFHRDDVARISDFSAEFFRRAAQSVPLNGLVLAGGRSLRMGRDKAQLRYHEASQLDRTAALLGGVCNEVFISCRSDQLDQYSDARLPGIADSYLDLGPLGGLLSAQRHAPGAAWLVAACDLPFIDEAVIAALRAGRHPFRFGTAFAGSDGRPEPLLAIYEPKSRRRLLERHASGNDSLRAFLMNSRVQFIEPNDASKLRNVNDPAAMDDALRAISKGGQLEHHHHHH
protein production: failed

MGKTLTGFHLKVIGVISMVFDHLLQFFSFLGVPGWFGWIGRIAAPIFLFESSEGFIHTSNRRKYMFRLLLGFWIMGILNGFLNAYFSTGGLIINNIFGTLFLGTVYMQSMDYFKQKQIGKGLLWFIVPLLISALPLVVFSSPDILSNPAILIGFQIFNLIVPSLMMTEGGFLFVLLAVAFYLFHGKKWLQISAIGVVALISAASYNFQELFGVNHQWMMILAAIPIVLYNGEKGRGMRNFFYIFYPAHIAIFAIISFFMQR
protein production: failed

MGKTRAGRFALRGQRTALLHLETMTQAVDSADSVDPRALEALNRYFGYDSFRPGQSGIVSAILTGHDVLGVMPTGAGKSICYQIPAAILPGVAIVISPLISLMRDQVDALNDVGLPAAFINTTQTPDEQDLVFAQALSGQIKLLYVAPERLETERFRNFAVRVPISLVAVDEAHCVSQWGQDFRSSYLGIGEFIAGLPTRPTVAAFTATATERVRRDIVSILGLHTPSITVTGFDRPNLYFDVISMPRKDKASWVASYIASHPDESGIVYCATRKETEALAESLNSAVAELRAAGGADVSDIGTIAVAYHGGMSADAREKAQRDFVTDRVPVVVATNAFGMGIDKSNVRFVIHHNMPESIEAYYQEAGRAGRDGEPSRCTLLWNESDIVTRRRLLDSDYENERLTPEEQEAVRASKRRLLDAMVGYCRTTDCLHAYMTRYFGETAGAAAKTDGKCVGGCANCEHTFETIDVTDIARAISRCVHDVNQHVGSGKIVKVLRGSKAQDLSYLNPESLPSFGMLDEVPEARIRDVLSQMATDGFLTIAEGRLPIVGFGPRAAETVAPEFHYDIKKIKRADARARRTPDVSTPAVGSYVPDDGDEALFQKLRALRLDIARELGKPPYIVFSDKTLRDMVRVKPITDDQFLAVNGVGESKLKQYGERFLAAIREDSGDEA
protein production: failed

MGKVILVTGVSRGIGKSIVDVLFSLDKDTVVYGVARSEAPLKKLKEKYGDRFFYVVGDITEDSVLKQLVNAAVKGHGKIDSLVANAGVLEPVQNVNEIDVNAWKKLYDINFFSIVSLVGIALPELKKTNGNVVFVSSDACNMYFSSWGAYGSSKAALNHFAMTLANEERQVKAIAVAPGIVDTDMQVNIRENVGPSSMSAEQLKMFRGLKENNQLLDSSVPATVYAKLALHGIPDGVNGQYLSYNDPALADFMP
protein production: not failed

MGKVSFGFLGLMLVVVVIGVVECRRFEKETLGGGGGGGLGGGFGGGKGFGGGIGAGGGFGGGAGGGAGGGLGGGAGGGGGIGGGAGGGAGGGLGGGAGGGLGGGHGGGIGGGAGGGAGGGLGGGHGGGIGGGAGGGSGGGLGGGIGGGAGGGAGGGGGLGGGHGGGIGGGAGGGAGGGLGGGHGGGIGGGAGGGSGGGLGGGIGGGAGGGAGGGGGAGGGGGLGGGHGGGFGGGAGGGLGGGAGGGTGGGFGGGAGGGAGGGAGGGFGGGAGGGAGGGFGGGAGGGAGGGAGGGFGGGAGGGHGGGVGGGFGGGSGGGFGGGAGGGAGGGAGGGFGGGGGAGGGFGGGF
protein production: failed

MGKYTSEHHKDSRIVQLFQDGQYFYHKGLKAYRERNLSRASKLIQRAIFLEPENTGMLSQLAVIYTEMGFYQQSNELLDFILKNINEKMTECYYFKANNYAHLGLFQEAYKAAETYLKEDPDGEFSEENAELLDLLDMGEEDQGYSQFDQDDLILKQDRAKSLLENGQLQESIAMLEEIISDYPEFWSAYNNLALAYFYAGDVQKAKTTVFTVLEKSHGNLHALCNLLIFYHYERRDDKVEALSEQLSNIYPMLFEQRYKLGATLALVGRYDLGFKWLKSLYRMGFEGDETFYYWLACSAYYTGRVQFARSVWKKMQEEYPDDARMEPWKERKEKRPVQRPLEERLAAYYISGRKGEKAQLKAVLDSQMAKTPFEDQFVRLVLYGESGAAVDSKDALLAYRTAKAIEQADQSAMEQEAMCFWIFHVIQQIRAYGLQLKNAGGLAAAIYYIWKTEHQERLTKAETAKIFQISPGTLSKYERTLKEHL
protein production: failed

MGLAASEALQGSEQEINSAFSNQITPVISGDYIVWQDERDGNWDIYMYDMSAGRTETSLFNGPKDEIEPAISGSRVVLADNRRGNYDIYMYDISTKKEVQVTSDKSEQKEPAISEDIIVWTDRRNQNTDIYMYDLTTKEETRITDDKADQSQPAVWGNIIVWKDTRNGNEDIYMYDISAGKESPVVMDSAAQTNPVIEGDYIVWEDRRAGNLDIYMYEISTGKEKPVCTDPSPQKTPAISDGRIVWADGRIKGTNIFIYDIATGQEKTVSTASEYESNPSIDGNRIVWQDKRKGAMDIFMFTEDASETESTAGEKTEAETGSKAPLGIYPVSAGVIAAYLMINSGKKGKRKTLEHHHHHH
protein production: failed

MGLGIVLQGEKQVVIGDQILTYCAGQTMLTTIDVPVVSHTHNAKNHKPFLGLMLLLDLSMISKVVTQMEQLNIKEKVQPSFAVQPIDYVLIEAVQRLVTLLDEPILLSQLSPIIQQEIMIRLLAGVNGVYLRQLIRVGSVSERVAKVVNWLKQNFVETIRLDELADRFYMSSATLRQHFREVTGMSPLQYQKHLRLQQARHLLFNQNLEVGHTADLVGYESVSQFSREYARLFGATPLKDKQAAQLS
protein production: failed

MGLIDRYLAREILLPFAAALLFLTQILLATQILGQADVLFGSGVSLVDVGLVMLSLMPHLLGYVIPVAFLLGVVLGVGRLAEDREVVALGAAGLSPVRLVRVPLLLGLVVAALGAWLSLSVEPASIRAARLRLNDVVKRNVTNDVRGGTFYDQIPGYTIYTERARGGRWENVLIQDRSNPDAPMLALSRRGRLEPVGAGQDMRLVLEQGEVHREEVGTADYASAAFGKAELLVGLGTALSDRNVLAKSSREATVSDLRARAAAAREKGDVVEERRQEGYLHRKLSAPLVVVAFALLGVPLGAERRGGRAFGMGATFLLVVVHYLLLRGGEVLTQLGHLPAAFALQLPNLVLGAAGVALVLLMARRGPEAVR
protein production: failed

MGLRDAEVRRAWAARLASWLPAPPGDVLDLGCGTGSLSLLAAEQGHRVTGVDLSPAMVELARTKLAGRDAVFLTGDAAAPPVGEQRFDAVLVRHVLWTLPDPGRALRHWRQLLRPGGRLVLVEGVWGSVSPVGIPADRVTALLGPLTGQARVERLSDDPSLWGREVADERYAVVATYGLEHHHHHH
protein production: failed

MGMAAESQFHVLAVDDSLFDRKLIERLLQKSSCQVTTVDSGSKALEFLGLRQSTDSNDPNAFSKAPVNHQVVEVNLIITDYCMPGMTGYDLLKKVKESSAFRDIPVVIMSSENVPARISRCLEEGAEEFFLKPVRLADLNKLKPHMMKTKLKNQKLEEIETTSKVENGVPTAVADPEIKDSTNIEIEILPLQQDLLLVQQEEQTLSINNKRKSVEEGISTDRARPRFDGIATAV
protein production: failed

MGMTRNLLAAGLAAVLALPALAAELVMVEQHGCEWCARWNEEIAPIYPKTAEGAFAPLRRVDLRAIPADLETARRVVFTPTFLIVEDGRELARLEGYPGEDFFWPLLEQLLVDHAGFVPKKPGSS
protein production: failed

MGNFMDDQCLLHASALTYSTLLSIVPFFALAFAVLKGLGVQNTLEPFILDQVAAGSHEIVDRIVTYINNTKVGSLGAVGLVTLVVSTVTLLGNIEETFNSIWGVRETRSLYRRFSDYLSVVVFGPILIFAAISVTTTLESQKAVQWLIGTAYLGDVLVAAFRLVPYVSIWLALVFLYMLIPNTKVRFRSALVGGVIAGTLWQAAQWGYIHFQVGVAKYNAIYGTLAVLPVFMIWLYASWSIVLFGVEVVYAHQHRRTFRHETHIPDLEPAARERLALALLLEVCRTFFRDGAPWNAERLAERLDVPERTARETLGMLVAKGWLAESCGEETLYLPARELEHMRVRELIASLRGHAMPLATGRFDPAVEWLAARMEGAVAAELGEVNFRTLAEGGGVD
protein production: failed

MGNGLMSKKKKKKNNKYKKKRPNVSRNCDWSKFCSDVLRKIFETLKSPIDSHRAFARISIQFGKHARTSLHVHGDSYTKVILPPSGNCLLMVDRRLKFYILNLLTRTTINLPSMSLIRGGQVFFKPQNEWSNDSGCFFGPSRNGNVSYDFDSVEWKNSVAVLWINETTGDYVVAWTFIQHYLFFYKSGYWSWCNLNHNGKSLVVFDMACENNKLYLYTANHHIRIFDFSGAYPMEKKTENPYWKYLFNAVEEPWEYVWKRKIAIQKSSGEVLIILSLKQVFYEAERLLFYIFKMNLESFKWERVYSLGDEMLVFGQGVTIPTALKDLGDGIKSDSIYFVDKDVWPDHQDHDRRVSNCGVFNIATSKIKWPTKKYRSVNETQWFVLGVAY
protein production: failed

MGNHAGKRELNAEKASTNSETNRGESEKKRNLGELSRTTSEDNEVFGEADANQNNGTSSQDTAVTDSKRTADPKNAWQDAHPADPGSRPHLIRLFSRDAPGREDNTFKDRPSESDELQTIQEDSAATSESLDVMASQKRPSQRHGSKYLATASTMDHARHGFLPRHRDTGILDSIGRFFGGDRGAPKRGSGKVSSEE
protein production: failed

MGNKRFRSDNNAGKPTSVEATRIWATKVIEDFRASGNEVYTFEHNLSNNERGVIHQMCRKMGIQSKSSGRGEQRRLSIFKSRHKNGNKNEANEKSNKEKLKCVSFPPGADVILQELFTHYPPCDGDTAATSFTKYSGNKGKQGQWKDDFFRKPQISSEEILEKVASLSSRLKKDKALKEITKLRSKLPITSFKDAITSAVESNQVL
protein production: failed

MGNLTTILYFAYAPALALLWYFYHQDRLEPEPKRVVIGTFILGGTLSVSVALIVESLLVPRWFPRIPALLPATFLYISLIAGIVEEPAKALAIKYAYNSGHLYGIMDGVVYGVAAGLGFAATENLLYGLGYGVHVTIQRALLTPIGHATWSAIVGVGYGLKAEGKVYTLAPYFTLAVLLHFLWDYYAFMSSISPVYYGIVLLIFTINVLIIRWLIILGRKEDMERFWWYRILGGRRW
protein production: failed

MGNNSESKGSASDSKGAETFTYKAENGNVKIPKHPKRVVVMADGYYGYFKTLGINVVGAPENVFKNPYYKGKTNGVENIGDGTSVEKVIDLNPDLIIVWTTQGADIKKLEKIAPTVAVKYDKLDNIEQLKEFAKMTGTEDKAEKWLAKWDKKVAAAKTKIKKAVGDKTISIMQTNGKDIYVFGKDFGRGGSIIYKDLGLQATKLTKEKAIDQGPGYTSISLEKLPDFAGDYIFAGPWQSGGDDGGVFESSIWKNLNAVKNGHVYKMDPIGFYFTDPISLEGQLEFITESLTKLEHHHHHH
protein production: not failed
